In the supplement of paper PMC7877785:
± gives the uncertainty stated by the source.

Experiment: self-splicing fitness, log relative to wild type (ln ratio); higher = more splicing; Tetrahymena group I intron in knt gene, E. coli kanamycin selection, DiMSum; sequences stand for … in CUCUCU…GGAGGGAAAAGUUAUCAGGCAUGCACCUGGUAGCUAGUCUUUAAACCAAUAGAUUGCAUCGGUUUAAAAGGCAAGACCGUCAAAUUGCGGGAAAGGGGUCAACAGCCGUUCAGUACCAAGUCUCAGGGGAAACUUUGAGAUGGCCUUGCAAAGGGUAUGGUAAUAAGCUGACGGACAUGGUCCUAACCACGCAGCCAAGUCCUAAGUCAACAGAUCUUCUGUUGAUAUGGAUGCAGUUCACAGACUAAAUGUCGGUCGGGGAAGAUGUAUUCUUCUCAUAAGAUAUAGUCGGACCUCUCCUUAAUGGGAGCUAGCGGAUGAAGUGAUGCAACACUGGAGCCGCUGGGAACUAAUUUGUAUGCGAAAGUAUAUUGAUUAGUUUUGGAGUACUCGUGGUCG
Method in brief: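 The eight P1ex-region nucleotides of an intron in the knt kanamycin-resistance gene on pET-22b(+) were all randomised and the library put into E. coli BL21(DE3). Six replicate transformations were grown overnight at 37°C or 30°C on LB agar with or without 25 μg/mL kanamycin, together with 100 μg/mL carbenicillin, 50 μM IPTG and 0.2% rhamnose. Colonies were pooled and amplicon-sequenced on an Illumina HiSeq 2500. Fitness from DiMSum is the error-weighted combination of wild-type-normalised replicate fold changes, kanamycin over none.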

Sequence	self-splicing fitness (ln) (30 °C)	self-splicing fitness (ln) (37 °C)
GCCUAGCAAUAUUACGUGGU	-3.71 ± 0.22	-2.23 ± 0.25
GGGCAGCAAUAUUACGUCAG	-1.19 ± 0.087	-0.138 ± 0.11
AAGGAGCAAUAUUACGAUUU	-0.545 ± 0.12	0.0878 ± 0.15
AGUCAGCAAUAUUACGGUAA	-2.02 ± 0.12	-1.19 ± 0.099
UAUGAGCAAUAUUACGUUAU	-3.87 ± 0.33	-2.46 ± 0.19
AAGUAGCAAUAUUACGCAUU	-2.16 ± 0.14	-0.921 ± 0.14
CGGGAGCAAUAUUACGGAGG	-3.27 ± 0.15	-3.12 ± 0.3
CGUUAGCAAUAUUACGGGCU	-1.6 ± 0.099	-1.46 ± 0.16
AGCGAGCAAUAUUACGAUAA	–	-2.17 ± 0.24
GAGGAGCAAUAUUACGACGA	-1.2 ± 0.13	0.494 ± 0.13
CCCCAGCAAUAUUACGAUCG	-2.85 ± 0.13	-0.917 ± 0.14
GCCUAGCAAUAUUACGCUCC	-1.64 ± 0.28	0.265 ± 0.2
GGCAAGCAAUAUUACGAUUU	-0.299 ± 0.058	0.164 ± 0.077
GUGGAGCAAUAUUACGAUUG	-1.98 ± 0.39	–
CCUCAGCAAUAUUACGACUA	-3.2 ± 0.43	-3.06 ± 0.32
CUGCAGCAAUAUUACGGCGG	-3.57 ± 0.25	-2.23 ± 0.28
GUUGAGCAAUAUUACGACGU	-0.544 ± 0.11	-0.345 ± 0.12
UACUAGCAAUAUUACGGACU	-0.895 ± 0.12	-0.214 ± 0.17
GAUCAGCAAUAUUACGUUCU	-2.42 ± 0.1	-1.46 ± 0.12
AACUAGCAAUAUUACGCUCU	-0.509 ± 0.12	0.627 ± 0.11

Sequence	self-splicing fitness (ln) (30 °C)	self-splicing fitness (ln) (37 °C)
GUGCAGCAAUAUUACGAUGA	-0.903 ± 0.14	-0.772 ± 0.14
CCUAAGCAAUAUUACGGCAC	-3.72 ± 0.25	-2.62 ± 0.28
CCGAAGCAAUAUUACGUCUA	-3.69 ± 0.35	-2.25 ± 0.3
CAGAAGCAAUAUUACGCAUG	-3.89 ± 0.21	-2.44 ± 0.17
AGAAAGCAAUAUUACGACAG	-2.36 ± 0.11	-0.954 ± 0.11
GACAAGCAAUAUUACGUUUG	-2.88 ± 0.094	-2.64 ± 0.13
ACUAAGCAAUAUUACGUCAC	-3.64 ± 0.19	-2.91 ± 0.27
GGAAAGCAAUAUUACGUUAC	-2.63 ± 0.16	-0.204 ± 0.11
GAUUAGCAAUAUUACGCCGA	-1.03 ± 0.42	–
UGAAAGCAAUAUUACGAUAU	-2.68 ± 0.18	-1.21 ± 0.13
AACAAGCAAUAUUACGGUCU	-0.114 ± 0.037	0.456 ± 0.054
UUGUAGCAAUAUUACGAGCG	-1.01 ± 0.14	-0.454 ± 0.28
UUAAAGCAAUAUUACGCGCC	-0.43 ± 0.15	-0.00103 ± 0.24
CAAAAGCAAUAUUACGUCAU	-2.71 ± 0.17	-2.48 ± 0.22
AGACAGCAAUAUUACGUGGU	-3.66 ± 0.14	-2.13 ± 0.12
GUGAAGCAAUAUUACGGUUC	-2.13 ± 0.12	-1.19 ± 0.14
AGCGAGCAAUAUUACGAACA	-2.63 ± 0.23	-1.89 ± 0.2
CACUAGCAAUAUUACGCUCC	–	-1.46 ± 0.2
CGCGAGCAAUAUUACGAUGC	–	-2.16 ± 0.21
